Experimental data as given in US20030027314A1.
One block for each binder: values may come before it.

Columns and labels:
c-Jun (unmodified) = assay: from thermal melts, Kd at 37 °C (FIG. 4)
CREB (unmodified) = molecular target: T1, CREB (unmodified); assay: thermal melting curve, mixture (FIG. 3)
T1 sequence (chain, from a related filing, looked up): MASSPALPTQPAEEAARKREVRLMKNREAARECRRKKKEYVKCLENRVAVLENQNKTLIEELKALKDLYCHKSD

[1] = molecular target: C/EBP bZIP domain (chimeric GCN4-C/EBP protein) (C/EBP part: 'present in rat liver'; GCN4 part: yeast); assay: CD thermal melt, equimolar mixture, 150 mM KCl
[2] = molecular target: c-Myc bHLH protein (murine) (UniProt P01108); assay: heterodimer with c-Myc, study of FIG. 9 (method not given)

Kd (c-Jun (unmodified)): 20000 nM
B1: c-Jun (unmodified) (protein, from a related filing)
chain: PLSPIDMESQERIKAERKRMRNRIAASKCRKRKLERIARLEEKVKTLKAQNSELASTANMLREQVAQLKQKVMNHVNSGCQLMLTQQLQTF

Tm (CREB (unmodified)): 69.5 °C
B2: New4hepCREB (CREB with the new 4heptad acidic extension, asparagine changed to leucine) (designed binder)
chain: MDYKDDDDKHMASMTGGQQMGRDPDLEQRAEELARENEELEKEAEELEQELAELENRVAVLENQNKTLIEELKALKDLYCHKSD

Kd [1]: 0.6 nM
Tm [1]: 61 °C
delta G at 25 °C [1]: -12.6 kcal/mol
B3: 3heptad-C/EBP (three heptad acidic extension appended onto the C/EBP leucine zipper) (designed binder, not shown: a dimerising Fc or GST)
chain: ASMTGGQQMGRDPGGGLARENEELEKEAEELEQENAELEQKVLELTSDNDRLRKRVEQLSRELDTLRGIFRQLPESSLVKAMGNCA

Kd [2]: 0.6 nM
B4: 0heptadMax (dimerization domain of Max without an acidic extension) (protein)
chain: ASMTGGQQMGRDPDLEELEDSFHSLRDSVPSLQGEKASRAQILDKATEYIQYMRRKNHTHQQDIDDLKRQNALLEQQVRALEKARSSAQLQT

Kd [2]: 0.002 nM
B5: AcidMax (Max with a polyglutamic acid extension on the dimerization domain) (designed binder)
chain: MASMTGGQQMGRDPDEEEDDEEELEELEDSFHSLRDSVPSLQGEKASRAQILDKATEYIQYMRRKNHTHQQDIDDLKRQNALLEQQVRALEKARSSAQLQT
